The values below are quoted from earlier work in paper PMC4134939.

The term Kd denotes the concentration at which binding is half-saturated.

This data set addresses ubiquitin (Homo sapiens) (UniProt P0CG47).

DNA polymerase iota UBM1, sequence (Q9UNA4 513-557): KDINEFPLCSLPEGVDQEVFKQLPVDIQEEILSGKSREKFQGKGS

Consider “DNA polymerase iota UBM1 (from UniProt Q9UNA4)”, for which the dissociation constant Kd was 130 µM.
